Assay results from the supplement of paper PMC5998384.

Legend:
HeLa Kyoto [1] = assay: solubility in G1/S (NP-40 vs SDS abundance) (log2 ratio); higher = more soluble; conditions: cell cycle stage: G1/S
HeLa Kyoto [2] = assay: melting temperature (median over replicates), in situ; higher = more thermally stable
HeLa Kyoto [3] = assay: solubility change mitosis vs G1/S (difference of NP-40 vs SDS log2 ratios) (log2 ratio difference); higher = more soluble in mitosis
HeLa Kyoto [4] = assay: thermal stability score vs G1/S (z-score of summed log2 fold changes over temperatures); higher = more thermally stable than in G1/S
[5] = cell cycle stage: early G1 (4.5 h after nocodazole release)
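For melting temperature (median over replicates), in situ in this document: HeLa Kyoto cells synchronized by double thymidine or nocodazole block, proteins quantified by TMT10plex mass spectrometry, three independent biological replicates.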
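For solubility change mitosis vs G1/S (difference of NP-40 vs SDS log2 ratios) in this document: synchronized HeLa Kyoto cells (double thymidine block for G1/S, nocodazole release for mitosis), protein amounts in NP-40 versus SDS lysates quantified by mass spectrometry, three biological replicates.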
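For solubility in G1/S (NP-40 vs SDS abundance) in this document: HeLa Kyoto cells arrested at G1/S by double thymidine block, proteins quantified by TMT10plex mass spectrometry in mild NP-40 versus SDS extracts, three biological replicates.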
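For thermal stability score vs G1/S (z-score of summed log2 fold changes over temperatures) in this document: synchronized HeLa Kyoto cells, proteins quantified by TMT10plex mass spectrometry, three biological replicates, mitosis taken 0.5 h after nocodazole release, G1/S directly after double thymidine block.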

Sequence | solubility in G1/S (log2) (HeLa Kyoto [1]) | melting temperature (HeLa Kyoto [2]; cell cycle stage: G1/S) | melting temperature (HeLa Kyoto [2]; cell cycle stage: mitosis) | solubility change mitosis (log2) (HeLa Kyoto [3]) | thermal stability score (HeLa Kyoto [4]; [5]) | thermal stability score (HeLa Kyoto [4]; cell cycle stage: mitosis)
MPGPRRPAGSRLRLLLLLLLPPLLLLLRGSHAGNLTVAVVLPLANTSYPWSWARVGPAVELALAQVKARPDLLPGWTVRTVLGSSENALGVCSDTAAPLAAVDLKWEHNPAVFLGPGCVYAAAPVGRFTAHWRVPLLTAGAPALGFGVKDEYALTTRAGPSYAKLGDFVAALHRRLGWERQALMLYAYRPGDEEHCFFLVEGLFMRVRDRLNITVDHLEFAEDDLSHYTRLLRTMPRKGRVIYICSSPDAFRTLMLLALEAGLCGEDYVFFHLDIFGQSLQGGQGPAPRRPWERGDGQDVSARQAFQAAKIITYKDPDNPEYLEFLKQLKHLAYEQFNFTMEDGLVNTIPASFHDGLLLYIQAVTETLAHGGTVTDGENITQRMWNRSFQGVTGYLKIDSSGDRETDFSLWDMDPENGAFRVVLNYNGTSQELVAVSGRKLNWPLGYPPPDIPKCGFDNEDPACNQDHLSTLEVLALVGSLSLLGILIVSFFIYRKMQLEKELASELWRVRWEDVEPSSLERHLRSAGSRLTLSGRGSNYGSLLTTEGQFQVFAKTAYYKGNLVAVKRVNRKRIELTRKVLFELKHMRDVQNEHLTRFVGACTDPPNICILTEYCPRGSLQDILENESITLDWMFRYSLTNDIVKGMLFLHNGAICSHGNLKSSNCVVDGRFVLKITDYGLESFRDLDPEQGHTVYAKKLWTAPELLRMASPPVRGSQAGDVYSFGIILQEIALRSGVFHVEGLDLSPKEIIERVTRGEQPPFRPSLALQSHLEELGLLMQRCWAEDPQERPPFQQIRLTLRKFNRENSSNILDNLLSRMEQYANNLEELVEERTQAYLEEKRKAEALLYQILPHSVAEQLKRGETVQAEAFDSVTIYFSDIVGFTALSAESTPMQVVTLLNDLYTCFDAVIDNFDVYKVETIGDAYMVVSGLPVRNGRLHACEVARMALALLDAVRSFRIRHRPQEQLRLRIGIHTGPVCAGVVGLKMPRYCLFGDTVNTASRMESNGEALKIHLSSETKAVLEEFGGFELELRGDVEMKGKGKVRTYWLLGERGSSTRG [NPR1] | 0.0297 | 52.4 °C | 51.4 °C | -0.0544 | 0.231 | -0.0841
MPGRAPLRTVPGALGAWLLGGLWAWTLCGLCSLGAVGAPRPCQAPQQWEGRQVMYQQSSGRNSRALLSYDGLNQRVRVLDERKALIPCKRLFEYILLYKDGVMFQIDQATKQCSKMTLTQPWDPLDIPQNSTFEDQYSIGGPQEQITVQEWSDRKSARSYETWIGIYTVKDCYPVQETFTINYSVILSTRFFDIQLGIKDPSVFTPPSTCQMAQLEKMSEDCSW [EPDR1] | 0.348 | 56.1 °C | 55 °C | -0.162 | -1.3 | -2.65
MPGSAAKGSELSERIESFVETLKRGGGPRSSEEMARETLGLLRQIITDHRWSNAGELMELIRREGRRMTAAQPSETTVGNMVRRVLKIIREEYGRLHGRSDESDQQESLHKLLTSGGLNEDFSFHYAQLQSNIIEAINELLVELEGTMENIAAQALEHIHSNEVIMTIGFSRTVEAFLKEAARKRKFHVIVAECAPFCQGHEMAVNLSKAGIETTVMTDAAIFAVMSRVNKVIIGTKTILANGALRAVTGTHTLALAAKHHSTPLIVCAPMFKLSPQFPNEEDSFHKFVAPEEVLPFTEGDILEKVSVHCPVFDYVPPELITLFISNIGGNAPSYIYRLMSELYHPDDHVL [EIF2B2] | 0.101 | 51.4 °C | 50.5 °C | -0.191 | 1.74 | 0.854
MPHLENVVLCRESQVSILQSLFGERHHFSFPSIFIYGHTASGKTYVTQTLLKTLELPHVFVNCVECFTLRLLLEQILNKLNHLSSSEDGCSTEITCETFNDFVRLFKQVTTAENLKDQTVYIVLDKAEYLRDMEANLLPGFLRLQELADRNVTVLFLSEIVWEKFRPNTGCFEPFVLYFPDYSIGNLQKILSHDHPPEYSADFYAAYINILLGVFYTVCRDLKELRHLAVLNFPKYCEPVVKGEASERDTRKLWRNIEPHLKKAMQTVYLREISSSQWEKLQKDDTDPGQLKGLSAHTHVELPYYSKFILIAAYLASYNPARTDKRFFLKHHGKIKKTNFLKKHEKTSNHLLGPKPFPLDRLLAILYSIVDSRVAPTANIFSQITSLVTLQLLTLVGHDDQLDGPKYKCTVSLDFIRAIARTVNFDIIKYLYDFL [ORC5] | -0.362 | 47.1 °C | 49 °C | -0.126 | 0.957 | 1.24
MPKAKGKTRRQKFGYSVNRKRLNRNARRKAAPRIECSHIRHAWDHAKSVRQNLAEMGLAVDPNRAVPLRKRKVKAMEVDIEERPKELVRKPYVLNDLEAEASLPEKKGNTLSRDLIDYVRYMVENHGEDYKAMARDEKNYYQDTPKQIRSKINVYKRFYPAEWQDFLDSLQKRKMEVE [NOP16] | -1.15 | 57.3 °C | 54.2 °C | 1.22 | -0.631 | -6.32
MPLELELCPGRWVGGQHPCFIIAEIGQNHQGDLDVAKRMIRMAKECGADCAKFQKSELEFKFNRKALERPYTSKHSWGKTYGEHKRHLEFSHDQYRELQRYAEEVGIFFTASGMDEMAVEFLHELNVPFFKVGSGDTNNFPYLEKTAKKGRPMVISSGMQSMDTMKQVYQIVKPLNPNFCFLQCTSAYPLQPEDVNLRVISEYQKLFPDIPIGYSGHETGIAISVAAVALGAKVLERHITLDKTWKGSDHSASLEPGELAELVRSVRLVERALGSPTKQLLPCEMACNEKLGKSVVAKVKIPEGTILTMDMLTVKVGEPKGYPPEDIFNLVGKKVLVTVEEDDTIMEELVDNHGKKIKS [NANS] | 0.172 | 53 °C | 52.3 °C | -0.108 | -1.59 | -2.55
MPLFFRKRKPSEEARKRLEYQMCLAKEAGADDILDISKCELSEIPFGAFATCKVLQKKVLIVHTNHLTSLLPKSCSLLSLATIKVLDLHDNQLTALPDDLGQLTALQVLNVERNQLMQLPRSIGNLTQLQTLNVKDNKLKELPDTVGELRSLRTLNISGNEIQRLPQMLAHVRTLEMLSLDASAMVYPPREVCGAGTAAILQFLCKESGLEYYPPSQYLLPILEQDGIENSRDSPDGPTDRFSREELEWQNRFSDYEKRKEQKMLEKLEFERRLELGQREHTQLLQQSSSQKDEILQTVKEEQSRLEQGLSEHQRHLNAERQRLQEQLKQTEQNISSRIQKLLQDNQRQKKSSEILKSLENERIRMEQLMSITQEETESLRRRDVASAMQQMLTESCKNRLIQMAYESQRQNLVQQACSSMAEMDERFQQILSWQQMDQNKAISQILQESAMQKAAFEALQVKKDLMHRQIRSQIKLIETELLQLTQLELKRKSLDTESLQEMISEQRWALSSLLQQLLKEKQQREEELREILTELEAKSETRQENYWLIQYQRLLNQKPLSLKLQEEGMERQLVALLEELSAEHYLPIFAHHRLSLDLLSQMSPGDLAKVGVSEAGLQHEILRRVQELLDAARIQPELKPPMGEVVTPTAPQEPPESVRPSAPPAELEVQASECVVCLEREAQMIFLNCGHVCCCQQCCQPLRTCPLCRQDIAQRLRIYHSS [LRSAM1] | 0.149 | 51 °C | 50.9 °C | -0.0589 | 0.0283 | 0.57
MPLNRTLSMSSLPGLEDWEDEFDLENAVLFEVAWEVANKVGGIYTVLQTKAKVTGDEWGDNYFLVGPYTEQGVRTQVELLEAPTPALKRTLDSMNSKGCKVYFGRWLIEGGPLVVLLDVGASAWALERWKGELWDTCNIGVPWYDREANDAVLFGFLTTWFLGEFLAQSEEKPHVVAHFHEWLAGVGLCLCRARRLPVATIFTTHATLLGRYLCAGAVDFYNNLENFNVDKEAGERQIYHRYCMERAAAHCAHVFTTVSQITAIEAQHLLKRKPDIVTPNGLNVKKFSAMHEFQNLHAQSKARIQEFVRGHFYGHLDFNLDKTLYFFIAGRYEFSNKGADVFLEALARLNYLLRVNGSEQTVVAFFIMPARTNNFNVETLKGQAVRKQLWDTANTVKEKFGRKLYESLLVGSLPDMNKMLDKEDFTMMKRAIFATQRQSFPPVCTHNMLDDSSDPILTTIRRIGLFNSSADRVKVIFHPEFLSSTSPLLPVDYEEFVRGCHLGVFPSYYEPWGYTPAECTVMGIPSISTNLSGFGCFMEEHIADPSAYGIYILDRRFRSLDDSCSQLTSFLYSFCQQSRRQRIIQRNRTERLSDLLDWKYLGRYYMSARHMALSKAFPEHFTYEPNEADAAQGYRYPRPASVPPSPSLSRHSSPHQSEDEEDPRNGPLEEDGERYDEDEEAAKDRRNIRAPEWPRRASCTSSTSGSKRNSVDTATSSSLSTPSEPLSPTSSLGEERN [GYS1] | -0.205 | 54.5 °C | 55.2 °C | -0.314 | 2.32 | 2.69
MPLSRWLRSVGVFLLPAPYWAPRERWLGSLRRPSLVHGYPVLAWHSARCWCQAWTEEPRALCSSLRMNGDQNSDVYAQEKQDFVQHFSQIVRVLTEDEMGHPEIGDAIARLKEVLEYNAIGGKYNRGLTVVVAFRELVEPRKQDADSLQRAWTVGWCVELLQAFFLVADDIMDSSLTRRGQICWYQKPGVGLDAINDANLLEACIYRLLKLYCREQPYYLNLIELFLQSSYQTEIGQTLDLLTAPQGNVDLVRFTEKRYKSIVKYKTAFYSFYLPIAAAMYMAGIDGEKEHANAKKILLEMGEFFQIQDDYLDLFGDPSVTGKIGTDIQDNKCSWLVVQCLQRATPEQYQILKENYGQKEAEKVARVKALYEELDLPAVFLQYEEDSYSHIMALIEQYAAPLPPAVFLGLARKIYKRRK [FDPS] | 0.151 | 50.8 °C | 51 °C | -0.0646 | 2.88 | 3.37
MPNWGGGKKCGVCQKTVYFAEEVQCEGNSFHKSCFLCMVCKKNLDSTTVAVHGEEIYCKSCYGKKYGPKGYGYGQGAGTLSTDKGESLGIKHEEAPGHRPTTNPNASKFAQKIGGSERCPRCSQAVYAAEKVIGAGKSWHKACFRCAKCGKGLESTTLADKDGEIYCKGCYAKNFGPKGFGFGQGAGALVHSE [CSRP1] | -0.0793 | 60.2 °C | – | -0.142 | -1.5 | -2.91
MPPKKQAQAGGSKKAEQKKKEKIIEDKTFGLKNKKGAKQQKFIKAVTHQVKFGQQNPRQVAQSEAEKKLKKDDKKKELQELNELFKPVVAAQKISKGADPKSVVCAFFKQGQCTKGDKCKFSHDLTLERKCEKRSVYIDARDEELEKDTMDNWDEKKLEEVVNKKHGEAEKKKPKTQIVCKHFLEAIENNKYGWFWVCPGGGDICMYRHALPPGFVLKKDKKKEEKEDEISLEDLIERERSALGPNVTKITLESFLAWKKRKRQEKIDKLEQDMERRKADFKAGKALVISGREVFEFRPELVNDDDEEADDTRYTQGTGGDEVDDSVSVNDIDLSLYIPRDVDETGITVASLERFSTYTSDKDENKLSEASGGRAENGERSDLEEDNEREGTENGAIDAVPVDENLFTGEDLDELEEELNTLDLEE [ZC3H15] | -0.131 | 54.1 °C | 53.6 °C | -0.0422 | 0.581 | -2.59
